Here are results for two substances from patent US20230277590A1.

Assay [1] has as its target Mesothelin (MSLN) on target cells (human).
Assay [2] shares this target. This is another data set of the same source.

M5 MSLN CAR, third generation showed a Time (hours) to 80% max killing of HeLa cells by transduced primary T cells (hours to 80% max killing (E:T 4:1)) in assay [1] of 28. With m912 MSLN CAR (Gen3), the EC50, Jurkat NFAT luciferase, HEK293 cells transfected with titrated MSLN mRNA (MSLN molecules/cell) in assay [2] came out at 80000.
